US20250313631A1 (HUMMINGBIRD BIOSCIENCE PTE, published 2025)
Where two headings read alike, the source gives them in different places.

T1: recombinant mouse VISTA (His-tagged) (mouse, UniProt Q9D659 33-191)
T1 construct: also called murine VISTA; mVISTA
T1 sequence (looked up): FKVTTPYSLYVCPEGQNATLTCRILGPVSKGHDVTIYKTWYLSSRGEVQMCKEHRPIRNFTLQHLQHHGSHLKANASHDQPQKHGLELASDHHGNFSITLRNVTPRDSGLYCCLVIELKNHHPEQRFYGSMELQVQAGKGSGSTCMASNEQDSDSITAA

T2: recombinant rat VISTA (His-tagged) (rat, UniProt A0ABK0L5H3 33-192)
T2 sequence: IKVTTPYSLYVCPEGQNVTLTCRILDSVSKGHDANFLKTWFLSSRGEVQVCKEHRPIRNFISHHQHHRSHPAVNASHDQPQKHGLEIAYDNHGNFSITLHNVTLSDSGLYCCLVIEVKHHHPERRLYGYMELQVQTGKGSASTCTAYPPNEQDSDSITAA

T3: human B7H6 (human, UniProt Q68D85 25-262)
T3 construct: also called NCR3LG1
T3 sequence (looked up): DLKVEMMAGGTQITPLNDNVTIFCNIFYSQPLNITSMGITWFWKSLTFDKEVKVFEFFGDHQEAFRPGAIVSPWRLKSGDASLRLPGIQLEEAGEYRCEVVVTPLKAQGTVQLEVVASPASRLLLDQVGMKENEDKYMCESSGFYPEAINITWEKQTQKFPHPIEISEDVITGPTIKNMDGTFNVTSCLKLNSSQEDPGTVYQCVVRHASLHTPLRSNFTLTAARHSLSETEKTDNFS

T4: human B7H4 (human, UniProt Q7Z7D3 25-258, limits assumed)
T4 construct: also called VTCN1
T4 sequence (looked up): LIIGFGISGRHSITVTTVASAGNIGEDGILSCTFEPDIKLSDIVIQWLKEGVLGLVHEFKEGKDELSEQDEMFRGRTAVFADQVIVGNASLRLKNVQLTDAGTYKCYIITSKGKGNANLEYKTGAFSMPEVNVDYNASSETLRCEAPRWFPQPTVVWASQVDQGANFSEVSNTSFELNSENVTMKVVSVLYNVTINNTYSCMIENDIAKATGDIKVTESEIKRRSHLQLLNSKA

T5: human B7H3 (human, UniProt Q5ZPR3 29-461, limits assumed)
T5 construct: also called CD276
T5 sequence (looked up): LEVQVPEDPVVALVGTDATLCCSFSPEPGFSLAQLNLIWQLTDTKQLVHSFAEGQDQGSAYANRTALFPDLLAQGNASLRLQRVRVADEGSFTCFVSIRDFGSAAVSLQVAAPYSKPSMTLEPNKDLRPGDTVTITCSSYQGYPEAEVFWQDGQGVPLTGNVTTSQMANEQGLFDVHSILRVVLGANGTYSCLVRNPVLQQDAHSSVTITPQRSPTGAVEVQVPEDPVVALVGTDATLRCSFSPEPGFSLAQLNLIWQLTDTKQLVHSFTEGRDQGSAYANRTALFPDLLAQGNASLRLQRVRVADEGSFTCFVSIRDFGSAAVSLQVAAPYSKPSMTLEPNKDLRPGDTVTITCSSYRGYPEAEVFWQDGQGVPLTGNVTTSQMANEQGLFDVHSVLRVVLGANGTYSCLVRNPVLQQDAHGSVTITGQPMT

T6: human B7H7 (human, UniProt Q9UM44 23-344)
T6 construct: also called HHLA2
T6 sequence (looked up): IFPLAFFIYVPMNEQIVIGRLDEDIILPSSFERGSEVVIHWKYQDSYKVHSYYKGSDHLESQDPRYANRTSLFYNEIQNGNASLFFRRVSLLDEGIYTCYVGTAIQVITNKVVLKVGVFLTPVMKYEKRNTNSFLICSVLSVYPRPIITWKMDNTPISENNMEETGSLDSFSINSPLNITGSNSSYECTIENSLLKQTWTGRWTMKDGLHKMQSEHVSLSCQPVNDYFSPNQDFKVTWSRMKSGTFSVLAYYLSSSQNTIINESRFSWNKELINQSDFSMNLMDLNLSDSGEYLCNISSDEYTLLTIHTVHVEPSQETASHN


Legend:
[1] = molecular target: T1, recombinant mouse VISTA (His-tagged); assay: BLI (Octet), 1:1 global fit, His-tagged mouse VISTA captured
[2] = molecular target: T7, recombinant human VISTA (His-tagged) (human, UniProt Q9H7M9 33-194); assay: BLI (Octet), 1:1 global fit, His-tagged human VISTA captured
T7 construct: bought soluble protein (Sino Biological); also called hVISTA; human VISTA polypeptide

[3] = molecular target: T1, recombinant mouse VISTA (His-tagged); assay: ELISA, plate coated with mouse VISTA; unit nM from the legend paragraph 698
[4] = molecular target: T1, recombinant mouse VISTA (His-tagged); assay: ELISA, plate coated with mouse VISTA
[5] = molecular target: T7, recombinant human VISTA (His-tagged); assay: ELISA, plate coated with human VISTA; unit nM from the legend paragraph 697
[6] = molecular target: T2, recombinant rat VISTA (His-tagged); assay: ELISA, plate coated with rat VISTA
[7] = molecular target: T7, recombinant human VISTA (His-tagged); assay: ELISA, plate coated with human VISTA; unit nM from the legend paragraph 698
human B7H6 [8] = molecular target: T3, human B7H6; assay: ELISA, plate coated with the antigen
human PD-1 [9] = molecular target: T8, human PD-1 (human, UniProt Q15116 25-167); assay: ELISA, plate coated with the antigen
human CTLA4 [10] = molecular target: T9, human CTLA4 (human, UniProt P16410 36-162); assay: ELISA, plate coated with the antigen
human B7H4 [11] = molecular target: T4, human B7H4; assay: ELISA, plate coated with the antigen
human B7H3 [12] = molecular target: T5, human B7H3; assay: ELISA, plate coated with the antigen
human B7H7 [13] = molecular target: T6, human B7H7; assay: ELISA, plate coated with the antigen
[14] = molecular target: T10, recombinant cynomolgus macaque VISTA (His-tagged) (cynomolgus macaque, UniProt A0A7N9IB00 33-194); assay: ELISA, plate coated with cyno VISTA
T10 construct: also called cyno VISTA; cynomolgus monkey VISTA

[15] = molecular target: T1, recombinant mouse VISTA (His-tagged); assay: BLI (Octet), 1:1 global fit, His-tagged mouse VISTA captured; remark: listed apart in the source
human PD-L1 = molecular target: T11, human PD-L1 (human, UniProt Q9NZQ7 19-239); assay: BLI (Octet), His-tagged human PD-L1 on anti-Penta-HIS biosensor, antibody 500-15.6 nM
T11 construct: captured through a His tag in the BLI experiments; also called hPD-L1; B7H1/PDL-1
Experimental: Finally, the biosensors were incubated for 120 sec in PBS pH 7.2 to obtain the dissociation curves. Kinetic and affinity constants were calculated by global fitting of the association and dissociation data to a 1:1 binding model.

[16] = molecular target: T7, recombinant human VISTA (His-tagged); assay: ELISA, plate coated with human VISTA
[17] = molecular target: T7, recombinant human VISTA (His-tagged); assay: ELISA, plate coated with human VISTA; remark: listed apart in the source
[18] = molecular target: T1, recombinant mouse VISTA (His-tagged); assay: ELISA, plate coated with mouse VISTA; unit nM from the legend paragraph 697
[19] = molecular target: T7, recombinant human VISTA (His-tagged); assay: ELISA, plate coated with human VISTA; remark: listed apart in the source
human B7H6 [20] = molecular target: T3, human B7H6; assay: ELISA, plate coated with the antigen; remark: listed apart in the source
human PD-1 [21] = molecular target: T8, human PD-1; assay: ELISA, plate coated with the antigen; remark: listed apart in the source
human CTLA4 [22] = molecular target: T9, human CTLA4; assay: ELISA, plate coated with the antigen; remark: listed apart in the source
human B7H4 [23] = molecular target: T4, human B7H4; assay: ELISA, plate coated with the antigen; remark: listed apart in the source
human B7H3 [24] = molecular target: T5, human B7H3; assay: ELISA, plate coated with the antigen; remark: listed apart in the source
human B7H7 [25] = molecular target: T6, human B7H7; assay: ELISA, plate coated with the antigen; remark: listed apart in the source

T8 sequence (Q15116 25-167 limits assumed): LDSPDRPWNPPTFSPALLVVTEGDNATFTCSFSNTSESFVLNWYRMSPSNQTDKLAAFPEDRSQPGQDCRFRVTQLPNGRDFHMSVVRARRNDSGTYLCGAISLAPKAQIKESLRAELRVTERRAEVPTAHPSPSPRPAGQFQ
T11 sequence (Q9NZQ7 19-239 limits assumed): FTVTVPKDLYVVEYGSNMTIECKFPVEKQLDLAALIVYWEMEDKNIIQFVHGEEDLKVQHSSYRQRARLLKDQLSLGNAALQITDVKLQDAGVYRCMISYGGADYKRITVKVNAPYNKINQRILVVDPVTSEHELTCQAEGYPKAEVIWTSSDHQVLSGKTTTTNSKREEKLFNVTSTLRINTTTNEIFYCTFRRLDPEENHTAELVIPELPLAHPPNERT
T9 sequence (P16410 36-162 limits assumed): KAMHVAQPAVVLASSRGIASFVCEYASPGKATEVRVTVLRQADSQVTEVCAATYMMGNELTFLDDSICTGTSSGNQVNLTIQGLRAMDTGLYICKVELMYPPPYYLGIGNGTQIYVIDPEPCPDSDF

Kd [1]	koff [1]	kon [1]	Kd [2]	koff [2]	kon [2]	EC50 [3]	EC50 [4]	EC50 [5]	EC50 [6]	EC50 [7]	EC50 [14]	Kd [15]	koff [15]	kon [15]	binding result (human PD-L1)	EC50 [16]	EC50 [18]	Binder	further results
0.489 nM	0.00025 s⁻¹	520000 M⁻¹ s⁻¹	< 0.001 nM	< 1e-07 s⁻¹	507000 M⁻¹ s⁻¹	0.064 nM	0.0365 nM	0.0015 nM	0.217 nM	0.053 nM	0.0367 nM	0.17 nM	8.2e-05 s⁻¹	475000 M⁻¹ s⁻¹	no binding (tested: 500 nM)	0.0346 nM	0.0045 nM	anti-VISTA clone V4-C28 IgG1 (antibody, V domains shown) VH: QVQLQESGPGLVKPSDTLSLTCTVSGYSITSDYTWNWIRQTPGKGLEWIGHITYSGSVSYNPSLRSRVTISRDTSKNQFSLKLSSVTAADTATYSCARALYYPWYFDVWGTGTTVTVSS VL: EIVLTQSPATLSLSPGERATLSCRASSSVGYIHWYQQKPGQAPRPLIYATSYRATGIPARFSGSGSGTDNTLTISSLEPEDSAVYYCQQWSSYPPITFGGGTKLEVKR	binding result (human B7H6 [8]): no binding (tested: log -7.5 M); binding result (human PD-1 [9]): no binding (tested: log -7.5 M); binding result (human CTLA4 [10]): no binding (tested: log -7.5 M); binding result (human B7H4 [11]): no binding (tested: log -7.5 M); binding result (human B7H3 [12]): no binding (tested: log -7.5 M); binding result (human B7H7 [13]): no binding (tested: log -7.5 M); EC50 (read off the curve) [17]: ~0.03 nM
< 0.001 nM	< 1e-07 s⁻¹	533000 M⁻¹ s⁻¹	< 0.001 nM	< 1e-07 s⁻¹	593000 M⁻¹ s⁻¹	0.123 nM	0.0326 nM	< 0.0007 nM	0.206 nM	0.088 nM	0.0272 nM	0.005 nM	2.8e-06 s⁻¹	505000 M⁻¹ s⁻¹	no binding (tested: 500 nM)	0.0318 nM	0.0013 nM	anti-VISTA clone V4-C30 IgG1 (antibody, V domains shown) VH: QVQLQESGPGLVKPSDTLSLTCTVSGYSITSDYTWNWIRQTPGKGLEWIGHITYSGSVSYNPSLRSRVTISRDTSKNQFSLKLSSVTAADTATYSCARALYYPWYFDVWGTGTTVTVSS VL: EIVLTQSPATLSLSPGERATLSCRASSSVGYIHWYQQKPGQAPRPLIYATYYRATGIPARFSGSGSGTDNTLTISSLEPEDSAVYYCQQWSSYPPITFGGGTKLEVKR	EC50 (read off the curve) [19]: ~0.02 nM; binding result (human B7H6 [20]): no binding (tested: log -7.5 M); binding result (human PD-1 [21]): no binding (tested: log -7.5 M); binding result (human CTLA4 [22]): no binding (tested: log -7.5 M); binding result (human B7H4 [23]): no binding (tested: log -7.5 M); binding result (human B7H3 [24]): no binding (tested: log -7.5 M); binding result (human B7H7 [25]): no binding (tested: log -7.5 M)
